B1: Pal-II (dsDNA)
DNA 1: AACTTAAAAGTATTTACAAACAATAACTTTTAGGTT
DNA 2: AACCTAAAAGTTATTGTTTGTAAATACTTTTAAGTT
B2: Pal-III (dsDNA)
DNA 1: TATTTTAATAACTTAAAAGT
DNA 2: ACTTTTAAGTTATTAAAATA
B3: X (dsDNA)
DNA 1: GATTTTTTTTGATTTTTTT
DNA 2: AAAAAAATCAAAAAAAATC
B4: Streptococcus pneumoniae HigA antitoxin (natural protein)
chain: MKNNAIGSNWKDVRAELFSKEEILESDMRVAIMSELIEARNEKGISQKKLEEMSGVSQPVIARMETGKTSPQLDTVLKVLASLGKTLAVVPLEHEQV
notes: Cloned with Nde1/Xho1 into pET-21a(+); Forms a dimer within the HigB-(HigA)2-HigB heterotetramer; also called WT HigA; full-length HigA
B5: B (dsDNA)
DNA 1: TAATAGAATAATAAGTATCACTCCTTTA
DNA 2: TAAAGGAGTGATACTTATTATTCTATTA
B6: Pal-IV (dsDNA)
DNA 1: TAGGTTATAATTGTTATTAGGAA
DNA 2: TTCCTAATAACAATTATAACCTA
B7: HigA^19–97 (domain or fragment)
chain: SKEEILESDMRVAIMSELIEARNEKGISQKKLEEMSGVSQPVIARMETGKTSPQLDTVLKVLASLGKTLAVVPLEHEQV
notes: HigA antitoxin, S. pneumoniae strain TIGR4, gene sp_1144, residues 19 to 97; Made 13C/15N-labelled for NMR; tag removed with thrombin (residues of the tag after the thrombin site may remain); also called deletion mutant HigA19-97
B8: Pal-I (dsDNA)
DNA 1: AGCATCTAGGAAACTAGGTGCT
DNA 2: AGCACCTAGTTTCCTAGATGCT
B9: Streptococcus pneumoniae HigB toxin (enzyme)
chain: MHNIYFYKDKNGNEPVFDYMRELTSKKGKDSRIKLNKINDYIELLSQHGTRAGEPYIKHLDAEIWELRPLRDRILFVAWMDGSFVLLHHFMKRTQKTPKREIEQAKRELADLKERGLDNEK

What was measured:
[1] = biological target: T1, HigB;HigA (Streptococcus pneumoniae …, UniProt A0A0H2UQ08;A0A0H2UQ20 1-121;1-97, |); assay: ITC; n=0.49; ITC: 50 mM MES pH 6.0, 100 mM NaCl, 25 C; […]; conditions: protein: recombinant;recombinant; chain copies: 2;2; blunt
[2] = biological target: T2, HigA (Streptococcus pneumoniae TIGR4, UniProt A0A0H2UQ20 1-97); assay: ITC; n=0.51; ITC: 50 mM MES pH 6.0, 100 mM NaCl, 25 C; […]; conditions: protein: recombinant; tags: pET-21a(+), stop codon in reverse primer; chain copies: 2; blunt
[3] = biological target: T1, HigB;HigA; assay: ITC; n=0.48; ITC: 50 mM MES pH 6.0, 100 mM NaCl, 25 C; […]; conditions: protein: recombinant;recombinant; chain copies: 2;2; blunt
[4] = biological target: T2, HigA; assay: ITC; n=0.50; ITC: 50 mM MES pH 6.0, 100 mM NaCl, 25 C; […]; conditions: protein: recombinant; tags: pET-21a(+), stop codon in reverse primer; chain copies: 2; blunt
[5] = biological target: T1, HigB;HigA; assay: EMSA; up to 0.6 mM protein; ITC: 50 mM MES pH 6.0, 100 mM NaCl, 25 C; […]; conditions: protein: recombinant;recombinant; chain copies: 2;2; blunt
[6] = biological target: the molecule itself; assay: crystal structure; HigBA complex, sitting-drop vapor diffusion at 293 K; protein 11 mg/mL in 50 mM MES pH 6.0, 500 mM NaCl; native data to 2.30 Å, SeMet SAD phasing at 2.80 Å
[7] = biological target: the molecule itself; assay: SEC; oligomeric state from a molecular weight comparison with various reference proteins (Fig. S2)
[8] = biological target: T1, HigB;HigA; assay: ITC; n=0.53; ITC: 50 mM MES pH 6.0, 100 mM NaCl, 25 C; […]; conditions: protein: recombinant;recombinant; chain copies: 2;2; blunt
[9] = biological target: T2, HigA; assay: as above; conditions: protein: recombinant; tags: pET-21a(+), stop codon in reverse primer; chain copies: 2; blunt
[10] = biological target: B4; assay: cell-based or functional assay

With B1 the Kd [1] was 0.7 ± 0.08 µM and the Kd [2] was 2.53 ± 0.11 µM.

B2 gave a Kd [3] of 0.2 ± 0.01 µM and a Kd [4] of 1.34 ± 0.01 µM.

B3: no binding [5].

B4: binds [6].

B5: no binding [5].

Binder B6 has a Kd [3] of 1.19 ± 0.14 µM.

For B7, the “stoichiometry N” value [7] was 2.

B8 gave a Kd [8] of 0.46 ± 0.03 µM and a Kd [9] of 1.61 ± 0.02 µM.

With B9 the “ribonuclease activity (fluorescence-labeled RNA substrate) of 2 μM HigBA after addition of 10 μM HigB α2 helix-mimicking peptide, relative to free HigB” value [10] was roughly 80%.

Reference: article PMC7984235, “Structure‐based design of peptides that trigger Streptococcus pneumoniae cell death” (The Febs Journal, 2020)
